Measurements from PMC2668526 (Bioorganic & medicinal chemistry, 2008).

Columns and labels:
Assay in all cases: purified protein, by the assay type
Conditions in all cases: other: O2 consumption, 5.0 mM ascorbate, pH 6.0, 37 °C
[1] = substrate: O=C(O)CNC(=O)SCc1ccccc1
[2] = substrate: O=C(O)CNC(=O)CNC(=O)c1ccccc1
[3] = substrate: O=C(O)CNC(=O)/C=C/c1ccccc1
[4] = substrate: O=C(O)CNC(=O)Cc1ccccc1
[5] = substrate: O=C(O)CNC(=O)c1c(F)cccc1F
[6] = substrate: Cc1ccc(C(=O)NCC(=O)O)cc1
[7] = substrate: O=C(O)CNC(=O)c1ccco1
[8] = substrate: Nc1ccc(C(=O)NCC(=O)O)cc1
[9] = substrate: Cc1cccc(C(=O)NCC(=O)O)c1
[10] = substrate: Cc1ccccc1C(=O)NCC(=O)O
[11] = substrate: O=C(O)CNC(=O)c1ccccc1I
[12] = substrate: O=C(O)CNC(=O)CCc1ccccc1
[13] = substrate: O=C(O)CNC(=O)c1ccc(C(F)(F)F)cc1
[14] = substrate: O=C(O)CNC(=S)Cc1ccccc1
[15] = substrate: O=C(O)CNC(=O)CSc1ccccc1
[16] = substrate: COc1ccc(C(=O)NCC(=O)O)cc1
[17] = substrate: O=C(O)CNC(=O)c1ccccc1O
[18] = substrate: Nc1ccccc1C(=O)NCC(=O)O
[19] = substrate: O=C(O)CNC(=O)c1cccc(Cl)c1
[20] = substrate: CCc1ccc(C(=O)NCC(=O)O)cc1

B1: rat PAM (Rattus norvegicus) (protein)
chain: FKETTRSFSNECLGTIGPVTPLDASDFALDIRMPGVTPKESDTYFCMSMRLPVDEEAFVIDFKPRASMDTVHHMLLFGCNMPSSTGSYWFCDEGTCTDKANILYAWARNAPPTRLPKGVGFRVGGETGSKYFVLQVHYGDISAFRDNHKDCSGVSVHLTRVPQPLIAGMYLMMSVDTVIPPGEKVVNADISCQYKMYPMHVFAYRVHTHHLGKVVSGYRVRNGQWTLIGRQNPQLPQAFYPVEHPVDVTFGDILAARCVFTGEGRTEATHIGGTSSDEMCNLYIMYYMEAKYALSFMTCTKNVAPDMFRTIPAEANIPIPVKPDMVMMHGHHKEAENKEKSALMQQPKQGEEEVLEQDFHVEEELDWPGVYLLPGQVSGVALDSKNNLVIFHRGDHVWDGNSFDSKFVYQQRGLGPIEEDTILVIDPNNAEILQSSGKNLFYLPHGLSIDTDGNYWVTDVALHQVFKLDPHSKEGPLLILGRSMQPGSDQNHFCQPTDVAVEPSTGAVFVSDGYCNSRIVQFSPSGKFVTQWGEESSGSSPRPGQFSVPHSLALVPHLDQLCVADRENGRIQCFKTDTKEFVREIKHASFGRNVFAISYIPGFLFAVNGKPYFGDQEPVQGFVMNFSSGEIIDVFKPVRKHFDMPHDIVASEDGTVYIGDAHTNTVWKFTLTEKMEHRSV
Q: For B1, which Km [1] is on record?
A: 59 ± 7 µM

Q: What about the kcat [1] of the same protein?
A: 0.69 ± 0.022 s⁻¹

Q: What about the kcat/Km [1] of the same protein?
A: 12000 ± 1400 M⁻¹ s⁻¹

Q: What about the Km [2] of the same protein?
A: 78 ± 11 µM

Q: And the kcat [2]?
A: 12 ± 0.8 s⁻¹

Q: And the kcat/Km [2]?
A: 160000 ± 10000 M⁻¹ s⁻¹

Q: And the Km [3]?
A: 230 ± 20 µM

Q: And the kcat [3]?
A: 8.4 ± 0.3 s⁻¹

Q: And the kcat/Km [3]?
A: 36000 ± 3000 M⁻¹ s⁻¹

Q: And the Km [4]?
A: 160 ± 5 µM

Q: What about the kcat [4] of the same protein?
A: 7.4 s⁻¹

Q: What about the kcat/Km [4] of the same protein?
A: 46000 M⁻¹ s⁻¹

Q: And the Km [5]?
A: 19000 ± 4000 µM

Q: What about the kcat [5] of the same protein?
A: 4.3 ± 0.6 s⁻¹

Q: And the kcat/Km [5]?
A: 230 ± 20 M⁻¹ s⁻¹

Q: What about the Km [6] of the same protein?
A: 1800 ± 200 µM

Q: And the kcat [6]?
A: 5.7 ± 0.3 s⁻¹

Q: And the kcat/Km [6]?
A: 3200 ± 200 M⁻¹ s⁻¹

Q: And the Km [7]?
A: 2700 ± 100 µM

Q: What about the kcat [7] of the same protein?
A: 7.5 ± 0.07 s⁻¹

Q: And the kcat/Km [7]?
A: 2800 ± 100 M⁻¹ s⁻¹

Q: What about the Km [8] of the same protein?
A: 2600 ± 200 µM

Q: What about the kcat [8] of the same protein?
A: 5.6 ± 0.2 s⁻¹

Q: What about the kcat/Km [8] of the same protein?
A: 2200 ± 100 M⁻¹ s⁻¹

Q: What about the Km [9] of the same protein?
A: 1400 ± 100 µM

Q: What about the kcat [9] of the same protein?
A: 6.4 ± 0.2 s⁻¹

Q: What about the kcat/Km [9] of the same protein?
A: 4700 ± 200 M⁻¹ s⁻¹

Q: What about the Km [10] of the same protein?
A: 4300 ± 300 µM

Q: What about the kcat [10] of the same protein?
A: 7.9 ± 0.3 s⁻¹

Q: And the kcat/Km [10]?
A: 1800 ± 40 M⁻¹ s⁻¹

Q: And the Km [11]?
A: 3400 ± 400 µM

Q: What about the kcat [11] of the same protein?
A: 3.1 ± 0.1 s⁻¹

Q: What about the kcat/Km [11] of the same protein?
A: 910 ± 70 M⁻¹ s⁻¹

Q: And the Km [12]?
A: 0.94 ± 0.1 0.55 ± 0.039 mM

Q: What about the kcat [12] of the same protein?
A: 9.9 ± 0.4 s⁻¹

Q: And the kcat/Km [12]?
A: 11000 ± 600 M⁻¹ s⁻¹

Q: What about the Km [13] of the same protein?
A: 770 ± 100 µM

Q: And the kcat [13]?
A: 2.8 ± 0.1 s⁻¹

Q: And the kcat/Km [13]?
A: 3600 ± 500 M⁻¹ s⁻¹

Q: What about the Km [14] of the same protein?
A: 24 ± 5 µM

Q: What about the kcat [14] of the same protein?
A: 2.4 ± 0.2 s⁻¹

Q: And the kcat/Km [14]?
A: 100000 ± 20000 M⁻¹ s⁻¹

Q: What about the Km [15] of the same protein?
A: 190 ± 20 µM

Q: And the kcat [15]?
A: 4.6 ± 0.2 s⁻¹

Q: What about the kcat/Km [15] of the same protein?
A: 25000 ± 1000 M⁻¹ s⁻¹

Q: What about the Km [16] of the same protein?
A: 820 ± 40 µM

Q: What about the kcat [16] of the same protein?
A: 5.3 ± 0.08 s⁻¹

Q: And the kcat/Km [16]?
A: 6400 ± 200 M⁻¹ s⁻¹

Q: And the kcat [17]?
A: 4.9 ± 0.05 s⁻¹

Q: What about the kcat/Km [17] of the same protein?
A: 7100 ± 100 M⁻¹ s⁻¹

Q: What about the Km [18] of the same protein?
A: 1400 ± 100 µM

Q: What about the kcat [18] of the same protein?
A: 4.2 ± 0.1 s⁻¹

Q: And the kcat/Km [18]?
A: 2900 ± 100 M⁻¹ s⁻¹

Q: And the Km [19]?
A: 2200 ± 200 µM

Q: And the kcat [19]?
A: 7.8 ± 0.3 s⁻¹

Q: And the kcat/Km [19]?
A: 3600 ± 200 M⁻¹ s⁻¹

Q: What about the Km [20] of the same protein?
A: 1200 ± 200 µM

Q: And the kcat [20]?
A: 3.6 ± 0.3 s⁻¹

Q: What about the kcat/Km [20] of the same protein?
A: 3100 ± 500 M⁻¹ s⁻¹
